# Results reported in patent EP3837551B1 (Medizinische Hochschule Hannover, dated 2024).
# T1: Recombinant FHR2, expressed in Pichia pastoris (human, UniProt P36980 19-270)
# T1 construct: also called CFHR2
# T1 sequence (looked up): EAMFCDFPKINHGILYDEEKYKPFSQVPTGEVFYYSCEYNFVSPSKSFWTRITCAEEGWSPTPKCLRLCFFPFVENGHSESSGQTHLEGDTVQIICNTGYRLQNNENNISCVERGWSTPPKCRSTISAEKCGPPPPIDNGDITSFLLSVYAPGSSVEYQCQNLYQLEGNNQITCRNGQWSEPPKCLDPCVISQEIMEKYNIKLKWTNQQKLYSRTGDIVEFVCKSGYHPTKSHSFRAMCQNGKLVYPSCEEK
# T2: Serum-derived FHR1 (FHR1 from normal human serum, NHS) (human, UniProt Q03591 19-330)
# T2 construct: mature; The background text says serum FHR1 circulates as homodimers and as heterodimers with FHR2; also called FHR1 from NHS
# T2 sequence (looked up): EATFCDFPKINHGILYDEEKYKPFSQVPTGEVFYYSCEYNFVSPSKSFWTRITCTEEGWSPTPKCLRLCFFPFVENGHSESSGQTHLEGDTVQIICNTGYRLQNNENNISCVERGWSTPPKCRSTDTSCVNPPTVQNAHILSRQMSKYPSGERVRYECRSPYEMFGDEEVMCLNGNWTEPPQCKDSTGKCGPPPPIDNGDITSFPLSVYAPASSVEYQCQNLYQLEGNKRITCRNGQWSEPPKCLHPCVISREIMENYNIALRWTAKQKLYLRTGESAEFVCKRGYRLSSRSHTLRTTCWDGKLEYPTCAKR
# Experiments:
# [1] = target: T1, Recombinant FHR2, expressed in Pichia …; test: competition ELISA, FHR2 at 0-15 ug/mL against serum FHR1 on immobilized FHR1 SCR1-2
# [2] = target: T2, Serum-derived FHR1 (FHR1 from normal …); test: ELISA, FHR1 SCR1-2 immobilized, 5% NHS, detection with mAb C18
# BSA = target: T3, BSA (UniProt P02769 25-607); test: ELISA, BSA coated at 5 ug/mL, FHR1 detected with polyclonal FHR1 antibody
# T3 construct: Control protein coated on the plate
# T3 sequence (P02769 25-607 limits assumed): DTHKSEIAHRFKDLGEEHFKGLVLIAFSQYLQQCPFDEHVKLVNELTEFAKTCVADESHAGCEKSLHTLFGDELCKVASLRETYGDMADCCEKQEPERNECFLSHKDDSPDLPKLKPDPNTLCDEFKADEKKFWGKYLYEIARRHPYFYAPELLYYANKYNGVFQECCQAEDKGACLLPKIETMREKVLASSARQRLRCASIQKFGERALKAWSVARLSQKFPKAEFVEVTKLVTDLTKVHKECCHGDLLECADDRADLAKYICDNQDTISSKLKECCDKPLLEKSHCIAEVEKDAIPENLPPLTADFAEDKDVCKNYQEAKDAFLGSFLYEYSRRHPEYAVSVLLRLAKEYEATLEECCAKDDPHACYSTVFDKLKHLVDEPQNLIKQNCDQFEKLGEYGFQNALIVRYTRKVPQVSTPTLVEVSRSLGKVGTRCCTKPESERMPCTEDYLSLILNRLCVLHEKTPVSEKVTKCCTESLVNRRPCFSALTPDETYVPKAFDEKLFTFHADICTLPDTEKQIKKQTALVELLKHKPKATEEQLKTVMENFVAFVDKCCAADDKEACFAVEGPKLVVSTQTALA
Binder,binding result [1],binding result [2],binding result (BSA)
"Recombinant FHR1 SCR1-2 (N-terminal fragment of FHR1) (other, human, UniProt Q03591 19-142, looked up, domain: SCR1-2; Expressed in P. pastoris; also called SCR1-2 of FHR1) EATFCDFPKINHGILYDEEKYKPFSQVPTGEVFYYSCEYNFVSPSKSFWTRITCTEEGWSPTPKCLRLCFFPFVENGHSESSGQTHLEGDTVQIICNTGYRLQNNENNISCVERGWSTPPKCRS",binds,binds,
"Recombinant factor H related protein 1 (FHR1), expressed in Pichia pastoris (other, human, UniProt Q03591 19-330, looked up, also called CFHR1; Complement Factor H-Related Protein 1) EATFCDFPKINHGILYDEEKYKPFSQVPTGEVFYYSCEYNFVSPSKSFWTRITCTEEGWSPTPKCLRLCFFPFVENGHSESSGQTHLEGDTVQIICNTGYRLQNNENNISCVERGWSTPPKCRSTDTSCVNPPTVQNAHILSRQMSKYPSGERVRYECRSPYEMFGDEEVMCLNGNWTEPPQCKDSTGKCGPPPPIDNGDITSFPLSVYAPASSVEYQCQNLYQLEGNKRITCRNGQWSEPPKCLHPCVISREIMENYNIALRWTAKQKLYLRTGESAEFVCKRGYRLSSRSHTLRTTCWDGKLEYPTCAKR",,,no binding (tested: 30 ug/mL FHR1)
